The assay concerns the target human FSH receptor (human) (UniProt P23945). In words: cell-based or functional assay.

human FSH receptor (human), sequence (P23945 18-695): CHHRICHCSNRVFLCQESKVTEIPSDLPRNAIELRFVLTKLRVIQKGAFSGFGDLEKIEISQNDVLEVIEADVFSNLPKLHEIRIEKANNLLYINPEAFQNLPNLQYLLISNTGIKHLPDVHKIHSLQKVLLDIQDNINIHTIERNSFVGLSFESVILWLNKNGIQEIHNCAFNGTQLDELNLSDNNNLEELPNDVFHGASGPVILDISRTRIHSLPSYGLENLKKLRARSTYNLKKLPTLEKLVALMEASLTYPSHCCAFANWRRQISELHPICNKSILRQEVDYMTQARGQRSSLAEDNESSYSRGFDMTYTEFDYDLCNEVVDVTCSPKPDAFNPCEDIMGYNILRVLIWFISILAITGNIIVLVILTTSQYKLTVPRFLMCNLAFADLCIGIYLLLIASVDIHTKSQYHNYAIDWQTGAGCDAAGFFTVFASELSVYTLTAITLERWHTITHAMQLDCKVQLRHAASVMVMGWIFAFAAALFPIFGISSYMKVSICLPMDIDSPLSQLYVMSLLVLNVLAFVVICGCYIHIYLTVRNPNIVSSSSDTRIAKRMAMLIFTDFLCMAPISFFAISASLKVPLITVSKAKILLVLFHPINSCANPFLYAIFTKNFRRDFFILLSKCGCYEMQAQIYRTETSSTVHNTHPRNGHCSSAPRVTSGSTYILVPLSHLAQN

With “FSH-Fc/Fc heterodimer (from UniProt P01215 25-116; P0DOX5 223-449) (Fc fusion)”, the 50% effective concentration (EC50) of cAMP production in CHO-FSHR cells stood at 0.204 nM and the in vitro biological activity relative to Gonal-F (cAMP production in CHO-FSHR cells) turned out to be 50%.

The values are drawn from patent US20190055295A1.
